Measured values from the supplement of paper PMC5998384.

Tests used:
HeLa Kyoto [1] = assay: solubility change mitosis vs G1/S (difference of NP-40 vs SDS log2 ratios) (log2 ratio difference); higher = more soluble in mitosis
HeLa Kyoto [2] = assay: solubility in G1/S (NP-40 vs SDS abundance) (log2 ratio); higher = more soluble; settings: cell cycle stage: G1/S
HeLa Kyoto [3] = assay: melting temperature (median over replicates), in situ; higher = more thermally stable
HeLa Kyoto [4] = assay: thermal stability score vs G1/S (z-score of summed log2 fold changes over temperatures); higher = more thermally stable than in G1/S
[5] = cell cycle stage: early G1 (4.5 h after nocodazole release)
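Throughout, for melting temperature (median over replicates), in situ: HeLa Kyoto cells synchronized by double thymidine or nocodazole block, proteins quantified by TMT10plex mass spectrometry, three independent biological replicates.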
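Throughout, for solubility change mitosis vs G1/S (difference of NP-40 vs SDS log2 ratios): synchronized HeLa Kyoto cells (double thymidine block for G1/S, nocodazole release for mitosis), protein amounts in NP-40 versus SDS lysates quantified by mass spectrometry, three biological replicates.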
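Throughout, for solubility in G1/S (NP-40 vs SDS abundance): HeLa Kyoto cells arrested at G1/S by double thymidine block, proteins quantified by TMT10plex mass spectrometry in mild NP-40 versus SDS extracts, three biological replicates.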
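Throughout, for thermal stability score vs G1/S (z-score of summed log2 fold changes over temperatures): synchronized HeLa Kyoto cells, proteins quantified by TMT10plex mass spectrometry, three biological replicates, mitosis taken 0.5 h after nocodazole release, G1/S directly after double thymidine block.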

MSRLGALGGARAGLGLLLGTAAGLGFLCLLYSQRWKRTQRHGRSQSLPNSLDYTQTSDPGRHVMLLRAVPGGAGDASVLPSLPREGQEKVLDRLDFVLTSLVALRREVEELRSSLRGLAGEIVGEVRCHMEENQRVARRRRFPFVRERSDSTGSSSVYFTASSGATFTDAESEGGYTTANAESDNERDSDKESEDGEDEVSCETVKMGRKDSLDLEEEAASGASSALEAGGSSGLEDVLPLLQQADELHRGDEQGKREGFQLLLNNKLVYGSRQDFLWRLARAYSDMCELTEEVSEKKSYALDGKEEAEAALEKGDESADCHLWYAVLCGQLAEHESIQRRIQSGFSFKEHVDKAIALQPENPMAHFLLGRWCYQVSHLSWLEKKTATALLESPLSATVEDALQSFLKAEELQPGFSKAGRVYISKCYRELGKNSEARWWMKLALELPDVTKEDLAIQKDLEELEVILRD [RMDN3]
solubility change mitosis (log2) (HeLa Kyoto [1]): -0.102 | solubility in G1/S (log2) (HeLa Kyoto [2]): -0.0304 | melting temperature (HeLa Kyoto [3]; cell cycle stage: G1/S): 51.1 °C | melting temperature (HeLa Kyoto [3]; cell cycle stage: mitosis): 50.8 °C | thermal stability score (HeLa Kyoto [4]; [5]): 0.252 | thermal stability score (HeLa Kyoto [4]; cell cycle stage: mitosis): -0.0237

MSERCCSRYSSGASIGCTPTSTQAKMVSKRIAQETFDAAVRENIEEFAMGPEEAVKEAVEQFESQGVDLSNIVKTAPKVSADGSQEPTHDILQMLSDLQESVASSRPQEVSAYLTRFCDQCKQDKACRFLAAQKGAYPIIFTAWKLATAGDQGLLLQSLNALSVLTDGQPDLLDAQGLQLLVATLTQNADEADLTCSGIRCVRHACLKHEQNRQDLVKAGVLPLLTGAITHHGHHTDVVREACWALRVMTFDDDIRVPFGHAHNHAKMIVQENKGLKVLIEATKAFLDNPGILSELCGTLSRLAIRNEFCQEVVDLGGLSILVSLLADCNDHQMRDQSGVQELVKQVLSTLRAIAGNDDVKDAIVRAGGTESIVAAMTQHLTSPQVCEQSCAALCFLALRKPDNSRIIVEGGGAVAALQAMKAHPQKAGVQKQACMLIRNLVAHGQAFSKPILDLGAEALIMQARSAHRDCEDVAKAALRDLGCHVELRELWTGQRGNLAP [ARMC6]
solubility change mitosis (log2) (HeLa Kyoto [1]): -0.0993 | solubility in G1/S (log2) (HeLa Kyoto [2]): 0.319 | melting temperature (HeLa Kyoto [3]; cell cycle stage: G1/S): 46.8 °C | melting temperature (HeLa Kyoto [3]; cell cycle stage: mitosis): 47 °C | thermal stability score (HeLa Kyoto [4]; [5]): 0.787 | thermal stability score (HeLa Kyoto [4]; cell cycle stage: mitosis): 2.44

MPGFLVRILPLLLVLLLLGPTRGLRNATQRMFEIDYSRDSFLKDGQPFRYISGSIHYSRVPRFYWKDRLLKMKMAGLNAIQTYVPWNFHEPWPGQYQFSEDHDVEYFLRLAHELGLLVILRPGPYICAEWEMGGLPAWLLEKESILLRSSDPDYLAAVDKWLGVLLPKMKPLLYQNGGPVITVQVENEYGSYFACDFDYLRFLQKRFRHHLGDDVVLFTTDGAHKTFLKCGALQGLYTTVDFGTGSNITDAFLSQRKCEPKGPLINSEFYTGWLDHWGQPHSTIKTEAVASSLYDILARGASVNLYMFIGGTNFAYWNGANSPYAAQPTSYDYDAPLSEAGDLTEKYFALRNIIQKFEKVPEGPIPPSTPKFAYGKVTLEKLKTVGAALDILCPSGPIKSLYPLTFIQVKQHYGFVLYRTTLPQDCSNPAPLSSPLNGVHDRAYVAVDGIPQGVLERNNVITLNITGKAGATLDLLVENMGRVNYGAYINDFKGLVSNLTLSSNILTDWTIFPLDTEDAVRSHLGGWGHRDSGHHDEAWAHNSSNYTLPAFYMGNFSIPSGIPDLPQDTFIQFPGWTKGQVWINGFNLGRYWPARGPQLTLFVPQHILMTSAPNTITVLELEWAPCSSDDPELCAVTFVDRPVIGSSVTYDHPSKPVEKRLMPPPPQKNKDSWLDHV [GLB1]
solubility change mitosis (log2) (HeLa Kyoto [1]): -0.293 | solubility in G1/S (log2) (HeLa Kyoto [2]): 0.0247 | melting temperature (HeLa Kyoto [3]; cell cycle stage: G1/S): 55.6 °C | melting temperature (HeLa Kyoto [3]; cell cycle stage: mitosis): 57.6 °C | thermal stability score (HeLa Kyoto [4]; [5]): 0.0217 | thermal stability score (HeLa Kyoto [4]; cell cycle stage: mitosis): 0.602

MSTSWSDRLQNAADMPANMDKHALKKYRREAYHRVFVNRSLAMEKIKCFGFDMDYTLAVYKSPEYESLGFELTVERLVSIGYPQELLSFAYDSTFPTRGLVFDTLYGNLLKVDAYGNLLVCAHGFNFIRGPETREQYPNKFIQRDDTERFYILNTLFNLPETYLLACLVDFFTNCPRYTSCETGFKDGDLFMSYRSMFQDVRDAVDWVHYKGSLKEKTVENLEKYVVKDGKLPLLLSRMKEVGKVFLATNSDYKYTDKIMTYLFDFPHGPKPGSSHRPWQSYFDLILVDARKPLFFGEGTVLRQVDTKTGKLKIGTYTGPLQHGIVYSGGSSDTICDLLGAKGKDILYIGDHIFGDILKSKKRQGWRTFLVIPELAQELHVWTDKSSLFEELQSLDIFLAELYKHLDSSSNERPDISSIQRRIKKVTHDMDMCYGMMGSLFRSGSRQTLFASQVMRYADLYAASFINLLYYPFSYLFRAAHVLMPHESTVEHTHVDINEMESPLATRNRTSVDFKDTDYKRHQLTRSISEIKPPNLFPLAPQEITHCHDEDDDEEEEEEEE [NT5C2]
solubility change mitosis (log2) (HeLa Kyoto [1]): -0.133 | solubility in G1/S (log2) (HeLa Kyoto [2]): -0.096 | melting temperature (HeLa Kyoto [3]; cell cycle stage: G1/S): 56.5 °C | melting temperature (HeLa Kyoto [3]; cell cycle stage: mitosis): 56.3 °C | thermal stability score (HeLa Kyoto [4]; [5]): -0.51 | thermal stability score (HeLa Kyoto [4]; cell cycle stage: mitosis): -1.23

MAAAEAGGDDARCVRLSAERAQALLADVDTLLFDCDGVLWRGETAVPGAPEALRALRARGKRLGFITNNSSKTRAAYAEKLRRLGFGGPAGPGASLEVFGTAYCTALYLRQRLAGAPAPKAYVLGSPALAAELEAVGVASVGVGPEPLQGEGPGDWLHAPLEPDVRAVVVGFDPHFSYMKLTKALRYLQQPGCLLVGTNMDNRLPLENGRFIAGTGCLVRAVEMAAQRQADIIGKPSRFIFDCVSQEYGINPERTVMVGDRLDTDILLGATCGLKTILTLTGVSTLGDVKNNQESDCVSKKKMVPDFYVDSIADLLPALQG [PGP]
solubility change mitosis (log2) (HeLa Kyoto [1]): -0.00434 | solubility in G1/S (log2) (HeLa Kyoto [2]): 0.536 | melting temperature (HeLa Kyoto [3]; cell cycle stage: G1/S): 56.8 °C | melting temperature (HeLa Kyoto [3]; cell cycle stage: mitosis): 58.2 °C | thermal stability score (HeLa Kyoto [4]; [5]): -0.684 | thermal stability score (HeLa Kyoto [4]; cell cycle stage: mitosis): -1.2
